Results: PMC11338361

Target: HA-DGAT2 (hemagglutinin-tagged tung tree DGAT2) (Vernicia fordii (tung tree)) (UniProt Q0QJH9)
Assay: SDS-PAGE and immunoblotting of microsomal membranes

Substance: HA-DGAT2 (hemagglutinin-tagged tung tree DGAT2) (from UniProt Q0QJH9 2-322) (enzyme)
- stoichiometry N: 2
